Assay [1] concerns Staphylococcus epidermidis, NRS-101. Briefly: plate lysis assay (spectrum of lytic activity). As to conditions: 6 μg. It is filed as cell-based. Further details: key to strength of lytic zone: strong lytic zone = ++; weak lytic zone = +; no lytic zone = −. As to the method:
(§1) The PlyGRCS spectrum of lytic activity was performed (Schmelcher M et al. (2012) Chimeric phage lysins act synergistically with lysostaphin to kill mastitis-causing Staphylococcus aureus in murine mammary glands. Appl Environ Microbiol 78(7):2297-305) with minor modifications. Bacterial cells were diluted in sterile PBS to an OD600=1, and 100 μl was spread on each plate. 10 μl spots (600 μg/ml) of PlyGRCS or CHAPGRCS were applied. Plates were incubated overnight at 37° C. Strength of lytic zones was defined qualitatively.

Assay [2] relates to Staphylococcus aureus, NRS-384. Briefly: plate lysis assay (spectrum of lytic activity). Further details: key to strength of lytic zone: strong lytic zone = ++; weak lytic zone = +; no lytic zone = −. As to conditions: 6 μg; S. aureus NRS-384, MRSA. In kind it is cell-based. As to the method:
as §1

B1: PlyGRCS: endolysin of bacteriophage GRCS (ORF15), amino acids 1-250, SEQ ID NO: 5, C-terminal 6× His tag (protein)
chain: MKSQQQAKEWIYKHEGTGVDFDGAYGFQCMDLAVAYVYYITDGKVRMWGNAKDAINNDFKGLATVYENTPSFKPQLGDVAVYTNSQYGHIQCVISGNLDYYTCLEQNWLGGGFDGWEKATIRTHYYDGVTHFIRPKFSASNSNVLETSKVNTFGNWKQNQYGTYYRNENATFTCGFLPIFARVGSPKLSEPNGYWFQPNGYTPYDEVCLSDGLVWIGYNWQGTRYYLPVRQWNGKTGNSYSIGLPWGVFS
modifications: C-terminal 6xHis tag; Synthetically generated polypeptide (PlyGRCS phage (S. aureus))
In the case of B1, the “lytic activity on plates (in words)” value in assay [1] (S. epidermidis NRS-101) is listed as “greatest strength”. Besides, the “strength of lytic zone” value is “++” in assay [1] (S. epidermidis NRS-101, MRSE) and “+” in assay [2].
